This note sets out measurements from paper PMC7021487.

The test deals with GFP Pavarotti co-expressed with exogenous Trc (greater pool phosphorylated at S745) (D. melanogaster). The test is described as follows: co-IP; GFP Pavarotti (WT, S745A, or WT with co-expressed Trc) over-expressed in HEK 293 FT cells; lysate in coIP buffer (50 mM Tris pH 7.5, 150 mM NaCl, 1.5% Triton X-100, 1 mM EDTA, 1 mM NaVO3); precipitated with GFP-Trap-M (single chain anti-GFP) beads, washed 3x; blot for endogenous 14-3-3.

“endogenous 14-3-3 ξ (HEK 293 FT cells) (from UniProt P63104 1-245) (natural protein)” displayed an increase of the co-precipitated interaction against GFP Pavarotti without Trc of 60%.
